Test results published in publication PMC11371828 (Nature Communications, 2024).

How the values were obtained:
6xHis-IKKβ(1-669) EE = molecular target: T1, 6xHis-IKKβ(1-669) EE (human, UniProt O14920 1-669, S177E | S181E); experiment: pull-down
T1 sequence (looked up): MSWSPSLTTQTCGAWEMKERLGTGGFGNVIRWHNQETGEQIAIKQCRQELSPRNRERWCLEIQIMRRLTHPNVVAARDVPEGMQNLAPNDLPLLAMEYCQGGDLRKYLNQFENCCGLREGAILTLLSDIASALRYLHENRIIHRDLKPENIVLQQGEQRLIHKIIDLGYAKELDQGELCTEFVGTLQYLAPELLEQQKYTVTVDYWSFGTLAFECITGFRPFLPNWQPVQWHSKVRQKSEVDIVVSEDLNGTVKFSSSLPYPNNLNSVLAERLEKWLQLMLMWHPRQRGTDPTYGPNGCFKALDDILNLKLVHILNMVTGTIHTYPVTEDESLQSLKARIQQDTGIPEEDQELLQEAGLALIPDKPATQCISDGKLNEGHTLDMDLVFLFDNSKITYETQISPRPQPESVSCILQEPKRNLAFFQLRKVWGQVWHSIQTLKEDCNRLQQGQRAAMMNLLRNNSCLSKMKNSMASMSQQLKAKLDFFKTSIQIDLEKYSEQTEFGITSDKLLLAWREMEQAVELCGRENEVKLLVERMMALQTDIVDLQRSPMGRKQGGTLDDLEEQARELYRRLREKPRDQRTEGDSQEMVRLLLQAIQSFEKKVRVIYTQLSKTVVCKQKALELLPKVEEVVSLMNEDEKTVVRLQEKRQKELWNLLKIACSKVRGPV

[1] = molecular target: T2, 6xHis-IKKβ(1-669) EE R460E (human, UniProt O14920 1-669, S177E | S181E | R460E); experiment: pull-down
T2 sequence (looked up): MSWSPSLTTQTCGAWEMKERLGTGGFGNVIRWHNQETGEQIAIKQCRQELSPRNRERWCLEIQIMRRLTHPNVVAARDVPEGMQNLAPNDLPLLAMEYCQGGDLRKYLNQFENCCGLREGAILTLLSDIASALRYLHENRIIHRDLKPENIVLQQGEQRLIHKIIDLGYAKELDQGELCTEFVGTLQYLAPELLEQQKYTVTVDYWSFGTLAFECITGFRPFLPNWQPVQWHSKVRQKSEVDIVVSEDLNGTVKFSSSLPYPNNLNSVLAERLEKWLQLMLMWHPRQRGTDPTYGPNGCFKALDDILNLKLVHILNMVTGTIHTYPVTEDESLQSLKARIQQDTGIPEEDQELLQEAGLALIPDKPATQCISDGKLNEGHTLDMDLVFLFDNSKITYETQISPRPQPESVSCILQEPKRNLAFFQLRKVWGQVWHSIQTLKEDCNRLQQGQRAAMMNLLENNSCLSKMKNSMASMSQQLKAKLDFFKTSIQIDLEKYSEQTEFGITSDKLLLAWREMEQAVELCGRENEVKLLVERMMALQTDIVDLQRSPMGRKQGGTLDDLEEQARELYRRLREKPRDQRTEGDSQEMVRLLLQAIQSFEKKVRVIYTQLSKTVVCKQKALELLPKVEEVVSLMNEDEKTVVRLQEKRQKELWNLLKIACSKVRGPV

B1: MBP-IκBα pep(s) (peptide, UniProt P25963 301-317, looked up)
chain: DELPYDDCVFGGQRLTL
binding result (6xHis-IKKβ(1-669) EE): binds
binding result [1]: binds
